From publication PMC4434323

Assays:
[1] = target: T1, med-2 (K04C2.6) (Caenorhabditis elegans) (UniProt G5EF25)
T1 sequence: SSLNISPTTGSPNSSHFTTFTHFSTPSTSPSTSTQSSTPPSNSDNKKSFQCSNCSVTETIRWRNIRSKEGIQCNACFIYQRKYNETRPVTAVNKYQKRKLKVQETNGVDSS

[2] = target: ceh-36 (C37E2.4) (Caenorhabditis elegans) (UniProt Q93352)
[3] = target: ceh-37 (C37E2.5) (Caenorhabditis elegans) (UniProt Q93356)
[4] = system: ceh-53 (C09G12.1) (Caenorhabditis elegans)
[5] = target: T2, ceh-34 (C10G8.6) (Caenorhabditis elegans) (UniProt Q94165)
T2 sequence: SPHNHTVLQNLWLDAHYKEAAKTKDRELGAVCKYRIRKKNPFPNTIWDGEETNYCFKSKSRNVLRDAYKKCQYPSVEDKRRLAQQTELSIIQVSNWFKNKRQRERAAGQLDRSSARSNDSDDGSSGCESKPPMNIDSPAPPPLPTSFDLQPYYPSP

[6] = target: dmd-4 (C27C12.6) (Caenorhabditis elegans) (UniProt Q18248)
[7] = target: T3, atf-6 (F45E6.2) (Caenorhabditis elegans) (UniProt Q20435)
T3 sequence: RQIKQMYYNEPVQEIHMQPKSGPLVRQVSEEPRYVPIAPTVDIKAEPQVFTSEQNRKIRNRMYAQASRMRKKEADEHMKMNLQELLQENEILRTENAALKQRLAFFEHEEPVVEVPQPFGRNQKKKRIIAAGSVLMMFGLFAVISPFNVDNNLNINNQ

[8] = target: T4, C27D6.4 (C27D6.4) (Caenorhabditis elegans) (UniProt Q4JFH9)
T4 sequence: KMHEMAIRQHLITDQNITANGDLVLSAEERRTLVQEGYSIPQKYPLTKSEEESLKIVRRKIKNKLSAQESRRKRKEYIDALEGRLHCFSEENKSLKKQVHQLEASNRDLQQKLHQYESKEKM

[9] = target: T5, C07E3.6 (C07E3.6) (Caenorhabditis elegans) (UniProt Q17792)
T5 sequence: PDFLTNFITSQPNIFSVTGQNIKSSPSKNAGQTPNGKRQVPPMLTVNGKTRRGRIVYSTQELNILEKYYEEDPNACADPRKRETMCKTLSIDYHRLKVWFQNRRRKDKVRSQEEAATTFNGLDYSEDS

[10] = target: T6, end-1 (F58E10.2) (Caenorhabditis elegans) (UniProt G5EDN4)
T6 sequence: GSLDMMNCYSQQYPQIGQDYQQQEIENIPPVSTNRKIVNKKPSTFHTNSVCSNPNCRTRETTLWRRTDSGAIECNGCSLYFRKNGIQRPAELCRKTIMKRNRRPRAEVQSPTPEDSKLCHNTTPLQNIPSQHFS

[11] = target: atf-7 (C07G2.2) (Caenorhabditis elegans) (UniProt Q86MD3)
Sequence of atf-7 (C07G2.2) (Caenorhabditis elegans) (Q86MD3 339-508): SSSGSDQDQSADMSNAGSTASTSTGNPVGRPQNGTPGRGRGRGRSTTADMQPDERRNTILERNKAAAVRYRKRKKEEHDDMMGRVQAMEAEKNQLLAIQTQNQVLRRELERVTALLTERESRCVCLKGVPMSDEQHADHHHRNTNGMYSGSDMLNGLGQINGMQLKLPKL

Sequence of ceh-36 (C37E2.4) (Caenorhabditis elegans) (Q93352 6-165): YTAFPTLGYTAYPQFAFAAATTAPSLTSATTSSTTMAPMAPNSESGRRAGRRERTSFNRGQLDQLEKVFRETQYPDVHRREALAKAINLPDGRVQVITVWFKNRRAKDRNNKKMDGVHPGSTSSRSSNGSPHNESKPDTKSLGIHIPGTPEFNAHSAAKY
Sequence of ceh-37 (C37E2.5) (Caenorhabditis elegans) (Q93356 1-148): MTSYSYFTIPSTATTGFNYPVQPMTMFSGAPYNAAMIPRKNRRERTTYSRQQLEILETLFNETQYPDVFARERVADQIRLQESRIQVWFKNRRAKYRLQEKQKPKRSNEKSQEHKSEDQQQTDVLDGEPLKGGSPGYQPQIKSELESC
Sequence of ceh-53 (C09G12.1) (Caenorhabditis elegans) (chain, as listed by the source): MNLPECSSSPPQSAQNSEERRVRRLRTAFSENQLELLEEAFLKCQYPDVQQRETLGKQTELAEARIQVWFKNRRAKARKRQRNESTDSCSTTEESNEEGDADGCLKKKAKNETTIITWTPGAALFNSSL
Sequence of dmd-4 (C27C12.6) (Caenorhabditis elegans) (Q18248 1-114): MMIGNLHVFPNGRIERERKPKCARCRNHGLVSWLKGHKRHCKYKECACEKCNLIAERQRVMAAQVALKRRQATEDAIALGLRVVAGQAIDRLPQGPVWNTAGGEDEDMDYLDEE

## AAAGTATA (double strand) [8-mer AAAGTATA]
[1]
  binding signal (PBM E-score (-0.5 to 0.5)): 0.496

## AAGGATTA (double strand) [8-mer AAGGATTA]
[2]
  binding signal (PBM E-score (-0.5 to 0.5)): 0.492
[3]
  binding signal (PBM E-score (-0.5 to 0.5)): 0.493
[4]
  binding signal (PBM E-score (-0.5 to 0.5)): 0.495

## AAGTATAC (double strand) [8-mer AAGTATAC]
[1]
  binding signal (PBM E-score (-0.5 to 0.5)): 0.499

## AAGTATCA (double strand) [8-mer AAGTATCA]
[5]
  binding signal (PBM E-score (-0.5 to 0.5)): 0.468

## AATGATAC (double strand) [8-mer AATGATAC]
[5]
  binding signal (PBM E-score (-0.5 to 0.5)): 0.461
[6]
  binding signal (PBM E-score (-0.5 to 0.5)): 0.482

## ACCACGTA (double strand) [8-mer ACCACGTA]
[7]
  binding signal (PBM E-score (-0.5 to 0.5)): 0.457

## ACGGATTA (double strand) [8-mer ACGGATTA]
[3]
  binding signal (PBM E-score (-0.5 to 0.5)): 0.487
[4]
  binding signal (PBM E-score (-0.5 to 0.5)): 0.494

## ACGTCAGA (double strand) [8-mer ACGTCAGA]
[7]
  binding signal (PBM E-score (-0.5 to 0.5)): 0.476

## ACGTGGCA (double strand) [8-mer ACGTGGCA]
[7]
  binding signal (PBM E-score (-0.5 to 0.5)): 0.477
[8]
  binding signal (PBM E-score (-0.5 to 0.5)): 0.499

## ACGTGGCC (double strand) [8-mer ACGTGGCC]
[7]
  binding signal (PBM E-score (-0.5 to 0.5)): 0.471

## ACGTGGCT (double strand) [8-mer ACGTGGCT]
[7]
  binding signal (PBM E-score (-0.5 to 0.5)): 0.466
[8]
  binding signal (PBM E-score (-0.5 to 0.5)): 0.492

## ACTAATCC (double strand) [8-mer ACTAATCC]
[2]
  binding signal (PBM E-score (-0.5 to 0.5)): 0.49
[4]
  binding signal (PBM E-score (-0.5 to 0.5)): 0.497

## AGGATTAA (double strand) [8-mer AGGATTAA]
[2]
  binding signal (PBM E-score (-0.5 to 0.5)): 0.492
[3]
  binding signal (PBM E-score (-0.5 to 0.5)): 0.491
[4]
  binding signal (PBM E-score (-0.5 to 0.5)): 0.494

## AGGATTAG (double strand) [8-mer AGGATTAG]
[2]
  binding signal (PBM E-score (-0.5 to 0.5)): 0.492
[4]
  binding signal (PBM E-score (-0.5 to 0.5)): 0.496

## AGGGATTA (double strand) [8-mer AGGGATTA]
[3]
  binding signal (PBM E-score (-0.5 to 0.5)): 0.487

## AGGGTATC (double strand) [8-mer AGGGTATC]
[5]
  binding signal (PBM E-score (-0.5 to 0.5)): 0.466

## AGGTATAC (double strand) [8-mer AGGTATAC]
[1]
  binding signal (PBM E-score (-0.5 to 0.5)): 0.496

## AGGTATCA (double strand) [8-mer AGGTATCA]
[5]
  binding signal (PBM E-score (-0.5 to 0.5)): 0.474

## AGTAATTA (double strand) [8-mer AGTAATTA]
[9]
  binding signal (PBM E-score (-0.5 to 0.5)): 0.494

## AGTATACA (double strand) [8-mer AGTATACA]
[1]
  binding signal (PBM E-score (-0.5 to 0.5)): 0.498

## AGTATACC (double strand) [8-mer AGTATACC]
[1]
  binding signal (PBM E-score (-0.5 to 0.5)): 0.499

## AGTATACG (double strand) [8-mer AGTATACG]
[1]
  binding signal (PBM E-score (-0.5 to 0.5)): 0.496

## AGTATACT (double strand) [8-mer AGTATACT]
[1]
  binding signal (PBM E-score (-0.5 to 0.5)): 0.5

## AGTATCCA (double strand) [8-mer AGTATCCA]
[1]
  binding signal (PBM E-score (-0.5 to 0.5)): 0.495

## ATAATCCG (double strand) [8-mer ATAATCCG]
[3]
  binding signal (PBM E-score (-0.5 to 0.5)): 0.49

## ATATCCCC (double strand) [8-mer ATATCCCC]
[5]
  binding signal (PBM E-score (-0.5 to 0.5)): 0.474

## ATGATACC (double strand) [8-mer ATGATACC]
[5]
  binding signal (PBM E-score (-0.5 to 0.5)): 0.481

## ATGATATC (double strand) [8-mer ATGATATC]
[10]
  binding signal (PBM E-score (-0.5 to 0.5)): 0.484
[5]
  binding signal (PBM E-score (-0.5 to 0.5)): 0.476

## ATTAATCC (double strand) [8-mer ATTAATCC]
[2]
  binding signal (PBM E-score (-0.5 to 0.5)): 0.494
[3]
  binding signal (PBM E-score (-0.5 to 0.5)): 0.492
[4]
  binding signal (PBM E-score (-0.5 to 0.5)): 0.495

## ATTGATAC (double strand) [8-mer ATTGATAC]
[5]
  binding signal (PBM E-score (-0.5 to 0.5)): 0.467
[6]
  binding signal (PBM E-score (-0.5 to 0.5)): 0.487

## CACGTCAG (double strand) [8-mer CACGTCAG]
[7]
  binding signal (PBM E-score (-0.5 to 0.5)): 0.473

## CACGTGGC (double strand) [8-mer CACGTGGC]
[7]
  binding signal (PBM E-score (-0.5 to 0.5)): 0.464
[8]
  binding signal (PBM E-score (-0.5 to 0.5)): 0.499

## CAGTATAC (double strand) [8-mer CAGTATAC]
[1]
  binding signal (PBM E-score (-0.5 to 0.5)): 0.498

## CCACGTAG (double strand) [8-mer CCACGTAG]
[7]
  binding signal (PBM E-score (-0.5 to 0.5)): 0.478

## CCACGTCA (double strand) [8-mer CCACGTCA]
[11]
  binding signal (PBM E-score (-0.5 to 0.5)): 0.496
[7]
  binding signal (PBM E-score (-0.5 to 0.5)): 0.488
[8]
  binding signal (PBM E-score (-0.5 to 0.5)): 0.496

## CCACGTGG (double strand) [8-mer CCACGTGG]
[7]
  binding signal (PBM E-score (-0.5 to 0.5)): 0.48
[8]
  binding signal (PBM E-score (-0.5 to 0.5)): 0.499

## CGGATTAA (double strand) [8-mer CGGATTAA]
[2]
  binding signal (PBM E-score (-0.5 to 0.5)): 0.489
[3]
  binding signal (PBM E-score (-0.5 to 0.5)): 0.492
[4]
  binding signal (PBM E-score (-0.5 to 0.5)): 0.494

## CGGATTAG (double strand) [8-mer CGGATTAG]
[4]
  binding signal (PBM E-score (-0.5 to 0.5)): 0.496

## CGGTATAC (double strand) [8-mer CGGTATAC]
[1]
  binding signal (PBM E-score (-0.5 to 0.5)): 0.495

## CTAATCCC (double strand) [8-mer CTAATCCC]
[2]
  binding signal (PBM E-score (-0.5 to 0.5)): 0.49
[4]
  binding signal (PBM E-score (-0.5 to 0.5)): 0.496

## CTTAATCC (double strand) [8-mer CTTAATCC]
[2]
  binding signal (PBM E-score (-0.5 to 0.5)): 0.489
[4]
  binding signal (PBM E-score (-0.5 to 0.5)): 0.494

## GAGTATAC (double strand) [8-mer GAGTATAC]
[1]
  binding signal (PBM E-score (-0.5 to 0.5)): 0.499

## GAGTATCA (double strand) [8-mer GAGTATCA]
[5]
  binding signal (PBM E-score (-0.5 to 0.5)): 0.46

## GATAATCC (double strand) [8-mer GATAATCC]
[3]
  binding signal (PBM E-score (-0.5 to 0.5)): 0.491

## GATACCCC (double strand) [8-mer GATACCCC]
[5]
  binding signal (PBM E-score (-0.5 to 0.5)): 0.48

## GATATCCC (double strand) [8-mer GATATCCC]
[5]
  binding signal (PBM E-score (-0.5 to 0.5)): 0.466

## GCCACGTA (double strand) [8-mer GCCACGTA]
[7]
  binding signal (PBM E-score (-0.5 to 0.5)): 0.48
[8]
  binding signal (PBM E-score (-0.5 to 0.5)): 0.497

## GCGGATTA (double strand) [8-mer GCGGATTA]
[2]
  binding signal (PBM E-score (-0.5 to 0.5)): 0.491
[3]
  binding signal (PBM E-score (-0.5 to 0.5)): 0.491
[4]
  binding signal (PBM E-score (-0.5 to 0.5)): 0.494

## GCTAATCC (double strand) [8-mer GCTAATCC]
[2]
  binding signal (PBM E-score (-0.5 to 0.5)): 0.493
[3]
  binding signal (PBM E-score (-0.5 to 0.5)): 0.49
[4]
  binding signal (PBM E-score (-0.5 to 0.5)): 0.497

## GCTAATTA (double strand) [8-mer GCTAATTA]
[9]
  binding signal (PBM E-score (-0.5 to 0.5)): 0.496

## GGATTAAA (double strand) [8-mer GGATTAAA]
[2]
  binding signal (PBM E-score (-0.5 to 0.5)): 0.49
[3]
  binding signal (PBM E-score (-0.5 to 0.5)): 0.488

## GGGGGATA (double strand) [8-mer GGGGGATA]
[5]
  binding signal (PBM E-score (-0.5 to 0.5)): 0.463

## GGGTATAC (double strand) [8-mer GGGTATAC]
[1]
  binding signal (PBM E-score (-0.5 to 0.5)): 0.496

## GGGTATCA (double strand) [8-mer GGGTATCA]
[5]
  binding signal (PBM E-score (-0.5 to 0.5)): 0.49

## GGTATACC (double strand) [8-mer GGTATACC]
[1]
  binding signal (PBM E-score (-0.5 to 0.5)): 0.496

## GGTATCAC (double strand) [8-mer GGTATCAC]
[5]
  binding signal (PBM E-score (-0.5 to 0.5)): 0.476

## GTATACCA (double strand) [8-mer GTATACCA]
[1]
  binding signal (PBM E-score (-0.5 to 0.5)): 0.495

## GTATACTA (double strand) [8-mer GTATACTA]
[1]
  binding signal (PBM E-score (-0.5 to 0.5)): 0.499

## TAATCCGA (double strand) [8-mer TAATCCGA]
[3]
  binding signal (PBM E-score (-0.5 to 0.5)): 0.489

## TAATCCTA (double strand) [8-mer TAATCCTA]
[2]
  binding signal (PBM E-score (-0.5 to 0.5)): 0.492
